Measured values from US20220267443A1.

Molecular target: CTLA-4-Ig
Assay: -; modified from Xu et al., JI 2012

Substance | Kd [nM]
CD80-Fc-His | 0.3
CD86-Fc-His | 3.6
